Assay results from US9817004B2, “Development and use of cysteine-labeled fluorescent probes of unbound analytes” (priority 2008, dated 2017).

Tests used:
[1] = FFAu response-profile screening of probes (FFA specificity); type: binding; settings: cysteine labeled with acrylodan at pH 7.0; FFA to which probe has improved specificity
Method: In some embodiments, aliquots of the probes prepared as described above are placed in multi-well plates, suitable for fluorescence measurements. Defined amounts of unbound analytes are added to each well and a fluorescence signal from the wells containing probe and analytes are compared to wells containing only the probe. The values obtained are compared with those of a ‘reference’ probe. The analytes may be fatty acids or other unbound metabolites. Preferably, the number of wells in the multiwell plate is between 1 and 1536. […] For many analytes it is important that they be added to each well in complex with a carrier molecule, for example albumin, to buffer the unbound analyte and thereby clamp its concentration to well defined values. Clamping ensures that the concentration of analyte in the aqueous phase in the well is unaffected by binding to the surfaces of the well or the probes themselves. Clamping is essential for discovery of probes because analytes have different solubilities and therefore different affinities for surfaces. Highly insoluble analytes added without proper clamping may bind to the surfaces and be unavailable for binding to the probe. In this example the probe might incorrectly give the appearance of no response to the insoluble analyte. Thus to determine the correct response profile (specificities) for each probe each analyte's concentration must be clamped.
The fluorescence intensity ratio (“R” value) for a given probe is determined. The ratio is calculated using the following formula: R=Fλ1/Fλ2 wherein, Fλ1 is the measured fluorescence intensities (intensity of the probe with the analyte present minus intensity of the analyte without probe present) at wavelength 1 and Fλ2 is the measured fluorescence intensities (intensity of the probe with the analyte present minus intensity of the analyte without probe present) at wavelength 2. Then, for a given probe, ΔR, the difference in R value between the measurement in the presence of each analyte and in the absence of each analyte, is calculated as follows: ΔR=R+analyte−R0 The ΔR value for a given probe is then compared to a reference probe, for example, ADIFAB or ADIFAB2, by ΔR/ΔRreferenee. This value is an indication of how dissimilar the new probe (derived by mutation of the template) is to the reference. By this method, probes with new and useful characteristics may be identified. Measurements of fluorescence intensities are obtained using standard techniques.
More than 40 libraries of cysteine-labeled mutant probes, using templates derived from SEQ ID NO: 5, with the number of different mutant probes in the various libraries ranging from 2000 to 2,000,000 have been generated using the methods described in U.S. Pat. No. 7,601,510, incorporated herein by reference. […]

[2] = Bilirubin binding isotherm of dual fluorophore ratio probes (I608/I525)
From the text: FIGS. 7A-7B show Bilirubin binding isotherms for two dual fluorophore bilirubin ratio probes synthesized by labeling with acrylodan and Texas red.
Because such fluorescent proteins may have other valuable characteristics it would be important to be able to convert such fluorescent proteins into probes, i.e. so that they respond to analyte binding by a change in ratio. This can be accomplished by introducing a second but different fluorophore at a different site so that either the fluorescence of the second fluorophore is insensitive or responds differently to analyte binding. In addition, the fluorescence index of second fluorophore should be measured at a distinct wavelength from the first fluorophore. […] To convert this to a fluorescence ratio probe, site specific mutagenesis was used to generate a new mutein (L2P14F7-MGCFD) in which the N-terminal alanine residue of the mature L2P14F7 mutein was replaced with glycine-cysteine. Thus, the N-terminus of the mature L2P14F7-MGCFD mutein has the sequence glycine-cysteine-phenylalanine-aspartate instead of alanine-phenylalanine-aspartate, as in the L2P14F7 template. This substitution is designated in the clone name as “MGCFD” and is sometimes described as an “N-terminal MGCFD linker”. Then L2P14F7-MGCFD was reacted with Texas Red (TR) maleimide at pH 6 under which conditions only the cysteine was labeled. […]

[3] = Fluorescence emission spectra with increasing oleic acid; type: binding; settings: acrylodan labeled; 22° C., Ex=386 nm
Method: FIGS. 1A-1C show Fluorescence spectra with increasing oleic acid at 22° C. Ex=386 nm.
This is an example of the type of fluorescence response that is a necessary characteristic of a probe. […] This example illustrates that altering specific sites can yield effective probes.

Molecule | Specificity [1] | fluorescence response upon FFA binding (spectral shift / ratio response) [3] | also measured
L68P3H10: 18L 23A 27C 31N 33N 55Q 72W 73T 74L 76I 106A 115E 117V 131D (protein, listed as Rattus norvegicus, acrylodan label on cysteine; MUTAGEN (131)...(131) rat intestinal fatty acid binding protein with Glu 131 to Asp subsitition.; COOH-terminal affinity tag comprising Arg132, Gly133 and 6 histidines, 18L 23A 27C 31N 33N 55Q 72W 73T 74L 76I 106A 115E 117V 131D) AFDGTWKVDRNENYEKFLEKMGANVVCRKLNANDNLKLTITQEGNKFTVKESSNQRNIDVVFELGVDFAYSWTLGIELTGTWTMEGNKLVGKFKRVDNGKELIAVAEISGNELIETVTYEGVEAKRIFKKDRGHHHHHH | DHA |  | 
L2P14F7: bilirubin specific fluorescent protein, the M18G,G31M mutation of SEQ ID NO 4, labeled with acrylodan at lysine 27 (protein, listed as Rattus norvegicus, acrylodan label at lysine 27; MUTAGEN (72)...(72) rat intestinal fatty acid binding protein with alanine substitution for leucine at position 72 and Glu 131 to Asp subsitition.; COOH-terminal affinity tag comprising Arg132, Gly133 and 6 histidines) AFDGTWKVDRNENYEKFGEKMGINVVKRKLMAHDNLKLTITQEGNKFTVKESSNFRNIDVVFELGVDFAYSAADGTELTGTWTMEGNKLVGKFKRVDNGKELIAVREISGNELIQTYTYEGVEAKRIFKKDRGHHHHHH |  |  | analyte specificity ([2]; labeled with acrylodan at lysine 27): bilirubin specific; Kd ([2]; single site equilibrium binding, ratio I608/I525, excited at 375 nm): ~80 nM
L10P7A4-L30C: acrylodan cysteine-labeled rI-FABP mutein; SEQ ID 5 mutations 14L 18L 27A 30C 31Y 72A 73L 117A 131D (protein, listed as Rattus norvegicus, acrylodan label at C30; MUTAGEN (131)...(131) rat intestinal fatty acid binding protein with Glu 131 to Asp subsitition.; COOH-terminal affinity tag comprising Arg132, Gly133 and 6 histidines) AFDGTWKVDRNENLEKFLEKMGINVVARKCYAHDNLKLTITQEGNKFTVKESSNFRNIDVVFELGVDFAYSALDGTELTGTWTMEGNKLVGKFKRVDNGKELIAVREISGNELIQTATYEGVEAKRIFKKDRGHHHHHH | DHA |  | 
L50BP9D5: acrylodan cysteine-labeled rI-FABP mutein; 18L 21F 23L 27C 31N 72S 73T 74A 76I 117N 131D (protein, listed as Rattus norvegicus, acrylodan label on cysteine; MUTAGEN (131)...(131) rat intestinal fatty acid binding protein with Glu 131 to Asp subsitition.; COOH-terminal affinity tag comprising Arg132, Gly133 and 6 histidines, acrylodan cysteine-labeled rI-FABP mutein; 18L 21F 23L 27C 31N 72S 73T 74A 76I 117N 131D) AFDGTWKVDRNENYEKFLEKFGLNVVCRKLNAHDNLKLTITQEGNKFTVKESSNFRNIDVVFELGVDFAYSSTAGIELTGTWTMEGNKLVGKFKRVDNGKELIAVREISGNELIQTNTYEGVEAKRIFKKDRGHHHHHH | PA/POA |  | 
L61P8B12: 8I 14L 18L 23L 27Y 30C 31V 53I 55W 72G 74A 78V 82V 91Y 93M 102V 106W 115W 117L 131D (protein, listed as Rattus norvegicus, acrylodan label on cysteine; MUTAGEN (131)...(131) rat intestinal fatty acid binding protein with Glu 131 to Asp subsitition.; COOH-terminal affinity tag comprising Arg132, Gly133 and 6 histidines, 8I 14L 18L 23L 27Y 30C 31V 53I 55W 72G 74A 78V 82V 91Y 93M 102V 106W 115W 117L 131D) AFDGTWKIDRNENLEKFLEKMGLNVVYRKCVAHDNLKLTITQEGNKFTVKESINWRNIDVVFELGVDFAYSGAAGTEVTGTVTMEGNKLVYKMKRVDNGKEVIAVWEISGNELIWTLTYEGVEAKRIFKKDRGHHHHHH | POA |  | 
ADIFAB: rat intestinal FABP (SEQ ID NO:2) labeled with acrylodan at lysine 27 (protein, listed as Rattus norvegicus, acrylodan label at K27; PEPTIDE (1)...(131) wild-type rat intestinal fatty acid binding protein; …ON (1)...(1)) AFDGTWKVDRNENYEKFMEKMGINVVKRKLGAHDNLKLTITQEGNKFTVKESSNFRNIDVVFELGVDFAYSLADGTELTGTWTMEGNKLVGKFKRVDNGKELIAVREISGNELIQTYTYEGVEAKRIFKKE |  | red shift in its fluorescence emission spectrum upon binding FFA | 
K27C: lysine 27 of SEQ ID NO:2 mutated to cysteine and the cysteine labeled with acrylodan (protein, listed as Rattus norvegicus, acrylodan label at C27; PEPTIDE (1)...(131) wild-type rat intestinal fatty acid binding protein; …ON (1)...(1)) AFDGTWKVDRNENYEKFMEKMGINVVCRKLGAHDNLKLTITQEGNKFTVKESSNFRNIDVVFELGVDFAYSLADGTELTGTWTMEGNKLVGKFKRVDNGKELIAVREISGNELIQTYTYEGVEAKRIFKKE |  | without the necessary spectral shift to yield a ratio probe | 
V26C K27A: SEQ ID NO:2 with lysine 27 mutated to alanine, valine 26 to cysteine, cysteine labeled with acrylodan (protein, listed as Rattus norvegicus, acrylodan label on cysteine 26; PEPTIDE (1)...(131) wild-type rat intestinal fatty acid binding protein; …ON (1)...(1)) AFDGTWKVDRNENYEKFMEKMGINVCARKLGAHDNLKLTITQEGNKFTVKESSNFRNIDVVFELGVDFAYSLADGTELTGTWTMEGNKLVGKFKRVDNGKELIAVREISGNELIQTYTYEGVEAKRIFKKE |  | yields a ratio response upon FFA binding | 
